experiment: yeast display, Sf9 membrane polyspecificity reagent, FACS + sequencing; frameworks hold sequencing errors
How it was run: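 Sorting gates, low and high (top ~1%), were placed on anti-HA fluorescence to track expression and on streptavidin fluorescence to track reagent binding. A clone's polyreactivity label is taken from the gate it came out of. The reagent was 10% biotinylated, detergent-solubilized Sf9 membrane, applied for 1 hour at 4 °C to galactose-induced yeast display cells.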

| Sequence | polyreactivity (PSR sort gate) |
| --- | --- |
| QVQLVESGGGLVQAGGSLRLSCAASGFTFPYYAMGWYRQAPGKERELVAAISWSGGSTNYADSVKGRFTISRDNAKNTVYLQMNSLIPEDTAVYYCATLPGYSMDFWGQGSQVTVSS | high polyreactivity |
| QVQLVESGGGLVQAGGSLRLSCAASGSIFGTYAMGWYRQAPGKERELVAAISWSDGSTYYADSVKGRFTISRDNAKNTVYLQMNSLKPEDTAVYYCAKVYRSIGPNVSRYGLSYYYWGQGTQVTVSS | low polyreactivity |
| QVQLVESGGGLVQAGGSLRLSCAASGFIFQAYALGWYRQAPGKERELVASISYSGSRTYYADSVKGRFTISRDNAKNTVYLQMNSLKPEDTAGYYCAARYGRYYKYNYWGQGTQVTVSS | high polyreactivity |
| QVQLVESGGGLVQAGGSLRLICAASGITFTGYAMGWYTQAPGKERELVAVISETGGSTYADSVKGRFTISRDNAKNTVYLQMNSLKPEDTAVYYCAARLWWPYSTAWAKMDYWGQGTQVTVSS | low polyreactivity |
| QVQLVESGGGLVQAGGSLRLSCAASGYISWAYVMGWYIQAPGKERELVAAISSGTSTYYADSVKGRFTISRDNAKNTVYLQMNSLKPEDTAVYYCAAYYYSYPTNGGYGYWGQGTQVTVSS | low polyreactivity |
| QVKLVESGGGLVQAGGSLRLSCSASGLTLSGNAMGWYRQAPGKERELVAAITGRGGSTTYADSVKGRFTISRDNAKNTVYLQMNSLKPEDTAVYYCPATRYSWHNRGSRRHRYDYWGQGTQVTVSS | low polyreactivity |
| QVHLVESGGGLVQAGGSLRLSCAASGRNFYTNVMGWSRQAPGKERELVAAISSGGGTTYYADSVKGRFTISRDNAKNTVYLQMNSLKPEDTAVYYCAADALSDEYDYWGQGTEVTVSS | low polyreactivity |
| QVQIVESGAGLVQAGGSLSLSCAASGSIFHDNAMGWYRQAPGKERELVAAINRGGSRHYADSVKGRFTISRDNAKNTVYFQMNSLKPEDTAVYYCAADGIRPEVGYWGQGTQVTVSS | low polyreactivity |
| QVQLVESGGGLVQAGGSLRLSCAASGIIFKYYAMGWYRPAPGKERELVAAITASGGRTYYADSVKGRFTISRDNAKNTVYLQMNSLKPEDTAVYYCAADSRSAYDYWGQGTQVTVSS | high polyreactivity |
| QVQLVESGGGLVQAGGSLRLSCAASGRTFIRNAMGWYRQAPGKERELVAAITRSGGSTYYADSVKGRFTISRDNAKNTVYFQMNSLKPEDTAVYYCAAQPFYYLVGVPDDYWGQGTHVTVSS | low polyreactivity |
| QVPLVESVGGLVQAGGSLRLSCAASGLTFWRYAMGWYRQAPGKEREFVAAISSGGSTNYADSVKGRFTISRDNAKNTVYLQMNSLKPEDTAVYYCNARYYHKRSTRVIFPYDYWGQGTQVTVSS | high polyreactivity |
| QDQLVESGGGLVQAGGSLRLSSAASGLTLHGNAMGWYRHAPGKERELVATITSSGGSTFYADSVKGRFTLSRDNAKNTVYLKMNSMKPEDTAVYYCNADAPYSVDYYVRFDYWGQGTQVTVSS | low polyreactivity |
| QVQLVESGGGLVQAGGSLRLSCAASGRIFKYYAMGWYRQAPGKNRELVATISVSGANTYYADSVKGRFTISRDNAKNPVYLQMNSLKREDTAVYFCAAGYAGVSHITRTSRKSHYGYWGQGTQVTVSS | high polyreactivity |
| QVQLVESGGGLVQAGGSLRLSCAASGSTLGSNARGWYRQAPGKERALVAAITWSGGTTYYADSVKGRFTISRDNAKNPVYLQMNSLKPEDTAVYYCATGQSVIYRYDYWGQGTQVTVSS | low polyreactivity |
| QVQLVESGGGLVQAGGSLRLSCAASGSIFYAYVMGWYRQAPGKERELVAAISSGGSTYYADSVKGRFTISRDNAKNTVYLQMNSLKPEDTAVYYCAVGRPSGWSYYTGGDYWGQGTQVTVSS | high polyreactivity |
| QVQLVESGGGLVQAGGSLRLSCAASGRIFYRNAMGWYRQAPGKERELVASITSGGRTNYADSVKGRFTISRDNAKNTVYLQMNSLKPEDTAVYYCAAPPPYSVRTFRFYYWGQGTQVTVSS | high polyreactivity |
| QVQLVESGAGLVQAGASLRLSCAASGRIFPWNAMGWSRQEPGKERELVAAISFSAGRTYYADSVKGRFTISRDNAKNTVYLQMNSLKPEDTAVYYCNARIGSRWVWTGIICYEYWGKGTQVTVSS | low polyreactivity |
| QVQLVESGGGLVQAGGSLRLSCAASGSIFYTYAMGWYRQAPGKERELVARIDYSTGNTYYADSVKGRFTISRDNAKNTVYLQMNSLKPEDTAVYYCAARDWSSFTGAYDYWGQGTQVTVSS | high polyreactivity |
| QVQRVESGGGLVQAGGSLRLSCAASGFTFVPYALGWYRPAPGQERELVAAISGSGGSTYYADSVKGRFTISRDNEKNTVYLQMNSLKPEDTAVYYCNADRRWAYYWGQGTQVTVSS | high polyreactivity |
| QVQLVESGGGLVQAGGSLRLSCAASGSIFSFYAMGWYRQAPGKESELVAAISRSGGSTYYADSVKGRFTISRDNAKNTVYLQMNSQKPEDTAVYYCAVYAFSYPRYYYWGQGTQVTVSS | low polyreactivity |
| QVQLVESGGGLVQAGGSLRLSCAASGRIFRTNAMGWYRQAPGKERELVAAITFSGGGTYYADSVKGRFTISRDNAKNTVYLQMNSLKPEDTAVYYCATDWYYEYYYWGQGTQVTVSS | low polyreactivity |
| QVQLVESGGGLVQAGGSLRLSCAASGSIRYYAMGWYRQAPGKERELVAAISSRGTNTYYADSVKGRFTISRDNAKNTVYLQMNSLKPEDTAVYYCIAVVGLGYNYWGQGTQVTVSS | high polyreactivity |
| QVHLVESGGGLVQAGGSLRLSSAASGRIFSFNAMGWYREAPGKERELVAAISWSNGSTFYADSVKGRFTISRDNAKNTVYLQMNSLKPEETAVYYCATGFPHPKRNVNRRNYWGQGTQVTVSS | high polyreactivity |
| QVQLVESGGGLVQAGGSLRLSCAASGLIFDWYAMGWYRQAPGKERELVADISYSGGSTNYADSVKGRFTISRDNAKNTVYLQMNSLKPEDTAVYYCAADDYWTPFGYWGQGTQVTVSS | low polyreactivity |
| QVQLVESGGGLVQAGGSLRLSCAASGRTFSYYAMGWYRQAAGKERELVAAISRAGRTNYADSVKGRFTISRDNAKNTVYLQMNSLKPEDTAVYYCAATGWLRIDRPYTYTYCYWGQGTQVTVSS | high polyreactivity |
| QVQLVESGGGLVQAGVSLRLSCAASGSIFDSNAMGWYRQAPGKERELVATISSVGSTNYADSVKGRFTISRDNAKNTVYLQMNSLKPEDTAVYYCARVVDAQGYYSAASGGYYWGQGTQVSVSS | low polyreactivity |
| QVQLVESGGGLVQAGGSLRLSCAASGRIIGTNARGWYRQAPGNERELVASISSRSTRTYYADSVKGRFTISRDNAKNTVYLQMNSLKPEDTAVYYCAARYPYYVHYDYWGQGTQVTVSS | high polyreactivity |
| QVQLVESGGGLVQAGGSLRLSCAASGFILRYYAMGWYRQAPGKERELVAAITRGGSTYDADSVKGRFTISRDNAKNTVYLQMNSLKPEDTAVYYFDRRVGYKFSYDYWGQGTQVTVSS | high polyreactivity |
| QDQLVESGGGLVHAGGSLRLSCAASGLTFGRNAMGWYRQAPGKERELVAAISRSGGRTSYADSVKGRFTISRDNAKYTVYLQMHSLKPEDTAVYYCAARSDVFTHDYWGQGTQVTVSS | high polyreactivity |
| QVQLVESGGGLVHAGGSLRLSCAACGRTFGRYPMGSYRQAPGKERELVAAITVGGGSTYYADSVKGRFTISRDYAKNTVYLQMNSLKPEDTAVYYCNALHTYTYRYDYYYWGQGTQVTVSS | high polyreactivity |

Reference: the nanobody polyreactivity screen of Harvey et al. (2022)
